# Results: the supplement of paper PMC9112550, “Optimization of the antimicrobial peptide Bac7 by deep mutational scanning” (BMC Biology, 2022)
# System: Escherichia coli TOP10
# Test: shrunken log2 fold change of peptide-encoding DNA abundance (4.5 h post-induction vs induction); higher = less antimicrobial activity (less host growth inhibition)
# Conditions: time post-induction: 4.5 h; library: site-saturation at positions 5, 18, 19, 20
# 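Also: peptides expressed intracellularly from a pBAD plasmid library in pooled LB shake-flask culture, induced with 0.3% L-arabinose, DNA abundance read by NGS, three biological replicates, DESeq2 with apeglm shrinkage.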
row,Sequence,shrunken log2 fold change
1,RRIRTRPPRLPRPRPRPGMMPRP,-0.211
2,RRIRRRPPRLPRPRPRPVLHPRP,0.0722
3,RRIRCRPPRLPRPRPRPRKGPRP,0.201
4,RRIRYRPPRLPRPRPRPIVMPRP,-0.254
5,RRIRLRPPRLPRPRPRPMFYPRP,-0.361
6,RRIRKRPPRLPRPRPRPGLTPRP,1.08
7,RRIRRRPPRLPRPRPRPHYTPRP,-0.313
8,RRIRRRPPRLPRPRPRPHPWPRP,0.25
9,RRIRCRPPRLPRPRPRPWWHPRP,-0.523
10,RRIRKRPPRLPRPRPRPDVDPRP,1.8
11,RRIRTRPPRLPRPRPRPGQCPRP,0.013
12,RRIRGRPPRLPRPRPRPQDFPRP,0.178
13,RRIRVRPPRLPRPRPRPPEIPRP,-0.0437
14,RRIRKRPPRLPRPRPRPRHYPRP,-0.0867
15,RRIRCRPPRLPRPRPRPKPSPRP,0.136
16,RRIRWRPPRLPRPRPRPRMKPRP,0.158
17,RRIRFRPPRLPRPRPRPWSHPRP,-0.843
18,RRIRRRPPRLPRPRPRPQGTPRP,0.294
19,RRIRMRPPRLPRPRPRPWSQPRP,-0.189
20,RRIRKRPPRLPRPRPRPIRPPRP,0.012
21,RRIRVRPPRLPRPRPRPYFHPRP,-0.738
22,RRIRLRPPRLPRPRPRPPVMPRP,0.154
23,RRIRDRPPRLPRPRPRPFHDPRP,-0.157
24,RRIRERPPRLPRPRPRPQRWPRP,0.117
25,RRIRWRPPRLPRPRPRPMNDPRP,-0.0845

row,Sequence,shrunken log2 fold change
1,RRIRYRPPRLPRPRPRPQVEPRP,-0.218
2,RRIRYRPPRLPRPRPRPCNKPRP,-0.0167
3,RRIRTRPPRLPRPRPRPTYDPRP,-0.311
4,RRIRIRPPRLPRPRPRPWHAPRP,-0.0572
5,RRIRWRPPRLPRPRPRPTWRPRP,0.609
6,RRIRCRPPRLPRPRPRPMKVPRP,-0.126
7,RRIRLRPPRLPRPRPRPRANPRP,0.126
8,RRIRTRPPRLPRPRPRPWYDPRP,0.0754
9,RRIRTRPPRLPRPRPRPWYNPRP,-0.325
10,RRIRCRPPRLPRPRPRPKHYPRP,-0.518
11,RRIRARPPRLPRPRPRPSMEPRP,0.146
12,RRIRGRPPRLPRPRPRPQWRPRP,0.612
13,RRIRCRPPRLPRPRPRPSALPRP,-0.0403
14,RRIRKRPPRLPRPRPRPFNFPRP,-0.296
15,RRIRCRPPRLPRPRPRPLLIPRP,-0.4
16,RRIRMRPPRLPRPRPRPKSVPRP,0.0926
17,RRIRLRPPRLPRPRPRPHEQPRP,0.00509
18,RRIRKRPPRLPRPRPRPANIPRP,0.214
19,RRIRMRPPRLPRPRPRPHEPPRP,-0.0151
20,RRIRVRPPRLPRPRPRPWHVPRP,-0.0616
21,RRIRLRPPRLPRPRPRPCPFPRP,-0.353
22,RRIRHRPPRLPRPRPRPCIVPRP,-0.0379
23,RRIRGRPPRLPRPRPRPKDLPRP,-0.0839
24,RRIRTRPPRLPRPRPRPDCEPRP,0.0084
25,RRIRGRPPRLPRPRPRPKQVPRP,0.541

row,Sequence,shrunken log2 fold change
1,RRIRIRPPRLPRPRPRPFPKPRP,-0.101
2,RRIRLRPPRLPRPRPRPDLNPRP,-1.09
3,RRIRSRPPRLPRPRPRPQGKPRP,0.0304
4,RRIRRRPPRLPRPRPRPHLIPRP,-0.293
5,RRIRCRPPRLPRPRPRPWMPPRP,-0.178
6,RRIRYRPPRLPRPRPRPMWLPRP,-0.224
7,RRIRWRPPRLPRPRPRPYLIPRP,-0.38
8,RRIRDRPPRLPRPRPRPTLFPRP,0.533
9,RRIRQRPPRLPRPRPRPRKRPRP,-0.104
10,RRIRQRPPRLPRPRPRPTSAPRP,0.257
11,RRIRHRPPRLPRPRPRPGVVPRP,-0.227
12,RRIRHRPPRLPRPRPRPLSTPRP,-0.0859
13,RRIRARPPRLPRPRPRPHADPRP,0.981
14,RRIRWRPPRLPRPRPRPRMLPRP,0.281
15,RRIRMRPPRLPRPRPRPSPGPRP,0.564
16,RRIRARPPRLPRPRPRPVHPPRP,0.217
17,RRIRKRPPRLPRPRPRPRGMPRP,0.357
18,RRIRSRPPRLPRPRPRPWCWPRP,0.0877
19,RRIRNRPPRLPRPRPRPEALPRP,0.102
20,RRIRIRPPRLPRPRPRPHKNPRP,-0.528
21,RRIRWRPPRLPRPRPRPPSFPRP,-0.0861
22,RRIRSRPPRLPRPRPRPQHHPRP,-0.466
23,RRIRGRPPRLPRPRPRPVCDPRP,0.959
24,RRIRDRPPRLPRPRPRPHYNPRP,-0.635
25,RRIRYRPPRLPRPRPRPHSKPRP,-0.463

row,Sequence,shrunken log2 fold change
1,RRIRYRPPRLPRPRPRPRYYPRP,-2.49
2,RRIRLRPPRLPRPRPRPVSQPRP,0.0349
3,RRIRSRPPRLPRPRPRPCSFPRP,-0.825
4,RRIRVRPPRLPRPRPRPCHVPRP,-0.859
5,RRIRLRPPRLPRPRPRPRYNPRP,-0.093
6,RRIRKRPPRLPRPRPRPQKDPRP,0.00486
7,RRIRLRPPRLPRPRPRPVDKPRP,-0.138
8,RRIRWRPPRLPRPRPRPVMSPRP,-0.172
9,RRIRERPPRLPRPRPRPMCTPRP,0.107
10,RRIRSRPPRLPRPRPRPAYPPRP,0.0454
11,RRIRARPPRLPRPRPRPVRYPRP,2.39
12,RRIRMRPPRLPRPRPRPQNKPRP,-0.176
13,RRIRPRPPRLPRPRPRPETSPRP,0.328
14,RRIRRRPPRLPRPRPRPQCHPRP,-0.0986
15,RRIRLRPPRLPRPRPRPTLGPRP,0.222
16,RRIRDRPPRLPRPRPRPKPFPRP,0.013
17,RRIRPRPPRLPRPRPRPHDEPRP,-0.0869
18,RRIRDRPPRLPRPRPRPFVGPRP,-0.0346
19,RRIRRRPPRLPRPRPRPDVVPRP,-0.0225
20,RRIRERPPRLPRPRPRPKFNPRP,-0.558
21,RRIRVRPPRLPRPRPRPEVNPRP,-0.0796
22,RRIRARPPRLPRPRPRPRHRPRP,0.412
23,RRIRRRPPRLPRPRPRPWKAPRP,0.0256
24,RRIRGRPPRLPRPRPRPAAWPRP,0.936
25,RRIRNRPPRLPRPRPRPAMLPRP,-0.145

row,Sequence,shrunken log2 fold change
1,RRIRVRPPRLPRPRPRPYSGPRP,-0.00858
2,RRIRWRPPRLPRPRPRPCCAPRP,0.47
3,RRIRHRPPRLPRPRPRPMWHPRP,-0.152
4,RRIRMRPPRLPRPRPRPMWYPRP,-0.288
5,RRIRQRPPRLPRPRPRPRICPRP,-0.083
6,RRIRNRPPRLPRPRPRPYETPRP,-0.0276
7,RRIRCRPPRLPRPRPRPVPIPRP,0.0325
8,RRIRDRPPRLPRPRPRPSHVPRP,-0.401
9,RRIRYRPPRLPRPRPRPVMHPRP,-0.338
10,RRIRSRPPRLPRPRPRPQTSPRP,-0.157
11,RRIRSRPPRLPRPRPRPNLFPRP,-0.0477
12,RRIRHRPPRLPRPRPRPHALPRP,0.0244
13,RRIRNRPPRLPRPRPRPFSHPRP,-0.015
14,RRIRQRPPRLPRPRPRPLNDPRP,-0.277
15,RRIRVRPPRLPRPRPRPDLCPRP,0.0475
16,RRIRCRPPRLPRPRPRPTQMPRP,0.565
17,RRIRDRPPRLPRPRPRPKMWPRP,0.123
18,RRIRSRPPRLPRPRPRPGEDPRP,0.106
19,RRIRIRPPRLPRPRPRPFFVPRP,-0.294
20,RRIRTRPPRLPRPRPRPYMEPRP,2.39
21,RRIRNRPPRLPRPRPRPMCHPRP,0.0429
22,RRIRLRPPRLPRPRPRPQADPRP,0.112
23,RRIRVRPPRLPRPRPRPWYIPRP,-0.0193
24,RRIRSRPPRLPRPRPRPYRAPRP,-0.019
25,RRIRNRPPRLPRPRPRPFDHPRP,-0.0345
